US20150344570A1 (published 2015)

B1: GpH7-B3 variant K326_07I/GpL16-k0 (antibody, human IgG1, kappa)
heavy: not shown
light: DIVMTQSPLSLPVTPGEPASISCQASESLVHSNRNTYLHWYLQKPGQSPQLLIYKVSNRFSGVPDRFSGSGSGTDFTLKISRVEAEDVGVYYCSQNTHVPPTFGQGTKVEIERTVAAPSVFIFPPSDEQLKSGTASVVCLLNNFYPREAKVQWKVDNALQSGNSQESVTEQDSKDSTYSLSSTLTLSKADYEKHKVYACEVTHQGLSSPVTKSFNRGEC
notes: Alteration in both H chains; also called Ho Ab K326_07I
B2: GpH7-B3 variant K326_08L/GpL16-k0 (antibody, human IgG1, kappa)
heavy: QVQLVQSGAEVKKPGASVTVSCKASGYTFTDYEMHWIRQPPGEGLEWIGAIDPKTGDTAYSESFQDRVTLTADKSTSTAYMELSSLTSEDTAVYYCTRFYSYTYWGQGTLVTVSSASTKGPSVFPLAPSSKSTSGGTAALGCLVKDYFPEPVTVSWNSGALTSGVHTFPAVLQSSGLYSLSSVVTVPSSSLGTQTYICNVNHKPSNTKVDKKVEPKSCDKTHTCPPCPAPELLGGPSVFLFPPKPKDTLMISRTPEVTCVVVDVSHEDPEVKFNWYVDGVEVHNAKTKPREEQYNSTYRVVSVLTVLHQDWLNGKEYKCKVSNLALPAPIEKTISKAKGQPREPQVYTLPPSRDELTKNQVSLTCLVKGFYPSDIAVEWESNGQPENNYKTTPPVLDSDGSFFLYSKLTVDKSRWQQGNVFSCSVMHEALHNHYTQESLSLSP
light: DIVMTQSPLSLPVTPGEPASISCQASESLVHSNRNTYLHWYLQKPGQSPQLLIYKVSNRFSGVPDRFSGSGSGTDFTLKISRVEAEDVGVYYCSQNTHVPPTFGQGTKVEIERTVAAPSVFIFPPSDEQLKSGTASVVCLLNNFYPREAKVQWKVDNALQSGNSQESVTEQDSKDSTYSLSSTLTLSKADYEKHKVYACEVTHQGLSSPVTKSFNRGEC
notes: Alteration in both H chains; also called Ho Ab K326_08L
B3: GpH7-B3 variant K326_09D/GpL16-k0 (antibody, human IgG1, kappa)
heavy: not shown
light: DIVMTQSPLSLPVTPGEPASISCQASESLVHSNRNTYLHWYLQKPGQSPQLLIYKVSNRFSGVPDRFSGSGSGTDFTLKISRVEAEDVGVYYCSQNTHVPPTFGQGTKVEIERTVAAPSVFIFPPSDEQLKSGTASVVCLLNNFYPREAKVQWKVDNALQSGNSQESVTEQDSKDSTYSLSSTLTLSKADYEKHKVYACEVTHQGLSSPVTKSFNRGEC
notes: Alteration in both H chains; also called Ho Ab K326_09D
B4: GpH7-B3 variant K326_10E/GpL16-k0 (antibody, human IgG1, kappa)
heavy: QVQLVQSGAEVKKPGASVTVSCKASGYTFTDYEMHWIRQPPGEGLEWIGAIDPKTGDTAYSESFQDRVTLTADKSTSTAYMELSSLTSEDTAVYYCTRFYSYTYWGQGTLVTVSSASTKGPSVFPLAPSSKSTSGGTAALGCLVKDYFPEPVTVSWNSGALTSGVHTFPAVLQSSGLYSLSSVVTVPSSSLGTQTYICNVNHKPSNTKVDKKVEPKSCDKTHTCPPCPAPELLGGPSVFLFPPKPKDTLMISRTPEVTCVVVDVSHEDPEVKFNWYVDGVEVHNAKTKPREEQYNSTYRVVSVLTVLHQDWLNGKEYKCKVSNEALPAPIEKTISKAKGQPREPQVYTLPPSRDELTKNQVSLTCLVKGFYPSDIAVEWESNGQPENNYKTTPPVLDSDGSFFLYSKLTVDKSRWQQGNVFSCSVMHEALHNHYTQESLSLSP
light: DIVMTQSPLSLPVTPGEPASISCQASESLVHSNRNTYLHWYLQKPGQSPQLLIYKVSNRFSGVPDRFSGSGSGTDFTLKISRVEAEDVGVYYCSQNTHVPPTFGQGTKVEIERTVAAPSVFIFPPSDEQLKSGTASVVCLLNNFYPREAKVQWKVDNALQSGNSQESVTEQDSKDSTYSLSSTLTLSKADYEKHKVYACEVTHQGLSSPVTKSFNRGEC
notes: Alteration in both H chains; also called Ho Ab K326_10E
B5: GpH7-B3 variant K326_19Q/GpL16-k0 (antibody, human IgG1, kappa)
heavy: not shown
light: DIVMTQSPLSLPVTPGEPASISCQASESLVHSNRNTYLHWYLQKPGQSPQLLIYKVSNRFSGVPDRFSGSGSGTDFTLKISRVEAEDVGVYYCSQNTHVPPTFGQGTKVEIERTVAAPSVFIFPPSDEQLKSGTASVVCLLNNFYPREAKVQWKVDNALQSGNSQESVTEQDSKDSTYSLSSTLTLSKADYEKHKVYACEVTHQGLSSPVTKSFNRGEC
notes: Alteration in both H chains; also called Ho Ab K326_19Q
B6: GpH7-B3 variant K326_20W/GpL16-k0 (antibody, human IgG1, kappa)
heavy: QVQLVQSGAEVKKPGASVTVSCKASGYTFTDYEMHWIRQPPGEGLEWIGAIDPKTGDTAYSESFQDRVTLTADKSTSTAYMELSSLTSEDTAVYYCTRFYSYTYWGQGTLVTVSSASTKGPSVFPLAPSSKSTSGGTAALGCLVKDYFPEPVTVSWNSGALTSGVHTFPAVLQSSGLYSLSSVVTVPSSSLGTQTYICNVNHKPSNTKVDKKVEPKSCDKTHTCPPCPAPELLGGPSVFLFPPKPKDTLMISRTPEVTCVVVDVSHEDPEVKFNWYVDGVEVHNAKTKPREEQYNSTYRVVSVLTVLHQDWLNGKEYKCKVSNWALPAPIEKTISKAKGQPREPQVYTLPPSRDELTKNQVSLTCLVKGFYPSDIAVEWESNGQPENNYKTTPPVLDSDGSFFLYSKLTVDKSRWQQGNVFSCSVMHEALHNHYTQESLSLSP
light: DIVMTQSPLSLPVTPGEPASISCQASESLVHSNRNTYLHWYLQKPGQSPQLLIYKVSNRFSGVPDRFSGSGSGTDFTLKISRVEAEDVGVYYCSQNTHVPPTFGQGTKVEIERTVAAPSVFIFPPSDEQLKSGTASVVCLLNNFYPREAKVQWKVDNALQSGNSQESVTEQDSKDSTYSLSSTLTLSKADYEKHKVYACEVTHQGLSSPVTKSFNRGEC
notes: Alteration in both H chains; also called Ho Ab K326_20W
B7: GpH7-B3 variant K334_02A/GpL16-k0 (antibody, human IgG1, kappa)
heavy: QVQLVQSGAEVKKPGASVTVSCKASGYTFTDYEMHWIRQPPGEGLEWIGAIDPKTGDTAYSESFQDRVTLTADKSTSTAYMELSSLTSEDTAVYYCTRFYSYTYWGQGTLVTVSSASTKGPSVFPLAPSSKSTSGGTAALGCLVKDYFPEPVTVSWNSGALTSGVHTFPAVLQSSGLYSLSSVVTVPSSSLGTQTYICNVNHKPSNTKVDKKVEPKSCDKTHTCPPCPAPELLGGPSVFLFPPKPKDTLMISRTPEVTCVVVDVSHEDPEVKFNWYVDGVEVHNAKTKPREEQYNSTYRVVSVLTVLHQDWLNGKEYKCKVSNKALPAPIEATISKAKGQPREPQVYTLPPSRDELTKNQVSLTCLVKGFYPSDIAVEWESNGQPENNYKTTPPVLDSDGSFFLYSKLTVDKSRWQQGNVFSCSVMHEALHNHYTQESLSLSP
light: DIVMTQSPLSLPVTPGEPASISCQASESLVHSNRNTYLHWYLQKPGQSPQLLIYKVSNRFSGVPDRFSGSGSGTDFTLKISRVEAEDVGVYYCSQNTHVPPTFGQGTKVEIERTVAAPSVFIFPPSDEQLKSGTASVVCLLNNFYPREAKVQWKVDNALQSGNSQESVTEQDSKDSTYSLSSTLTLSKADYEKHKVYACEVTHQGLSSPVTKSFNRGEC
notes: Alteration in both H chains; also called Ho Ab K334_02A
B8: GpH7-B3 variant K334_03V/GpL16-k0 (antibody, human IgG1, kappa)
heavy: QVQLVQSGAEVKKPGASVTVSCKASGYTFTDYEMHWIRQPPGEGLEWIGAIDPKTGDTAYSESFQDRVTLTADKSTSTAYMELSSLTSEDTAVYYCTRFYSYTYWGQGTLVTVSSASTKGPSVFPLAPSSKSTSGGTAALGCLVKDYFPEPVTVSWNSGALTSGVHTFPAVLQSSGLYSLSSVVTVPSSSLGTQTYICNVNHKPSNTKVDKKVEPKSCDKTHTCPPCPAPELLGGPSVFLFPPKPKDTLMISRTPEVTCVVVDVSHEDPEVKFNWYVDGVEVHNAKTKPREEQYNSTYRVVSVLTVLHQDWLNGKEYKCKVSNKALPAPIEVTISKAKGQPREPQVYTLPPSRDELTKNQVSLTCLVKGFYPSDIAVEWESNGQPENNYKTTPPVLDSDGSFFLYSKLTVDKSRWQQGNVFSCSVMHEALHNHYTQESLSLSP
light: DIVMTQSPLSLPVTPGEPASISCQASESLVHSNRNTYLHWYLQKPGQSPQLLIYKVSNRFSGVPDRFSGSGSGTDFTLKISRVEAEDVGVYYCSQNTHVPPTFGQGTKVEIERTVAAPSVFIFPPSDEQLKSGTASVVCLLNNFYPREAKVQWKVDNALQSGNSQESVTEQDSKDSTYSLSSTLTLSKADYEKHKVYACEVTHQGLSSPVTKSFNRGEC
notes: Alteration in both H chains; also called Ho Ab K334_03V
B9: GpH7-B3 variant K334_04F/GpL16-k0 (antibody, human IgG1, kappa)
heavy: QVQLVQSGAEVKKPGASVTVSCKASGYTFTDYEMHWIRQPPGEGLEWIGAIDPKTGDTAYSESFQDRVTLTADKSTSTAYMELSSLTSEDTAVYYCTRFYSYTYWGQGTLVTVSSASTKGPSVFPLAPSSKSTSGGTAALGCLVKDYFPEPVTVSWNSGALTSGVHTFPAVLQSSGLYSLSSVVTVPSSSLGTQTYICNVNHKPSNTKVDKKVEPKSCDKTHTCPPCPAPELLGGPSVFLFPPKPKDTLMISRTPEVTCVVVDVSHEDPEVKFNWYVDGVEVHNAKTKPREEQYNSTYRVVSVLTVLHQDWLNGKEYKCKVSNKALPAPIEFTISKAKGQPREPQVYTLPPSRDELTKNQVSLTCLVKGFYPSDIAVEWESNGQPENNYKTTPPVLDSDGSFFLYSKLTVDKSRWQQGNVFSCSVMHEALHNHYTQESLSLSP
light: DIVMTQSPLSLPVTPGEPASISCQASESLVHSNRNTYLHWYLQKPGQSPQLLIYKVSNRFSGVPDRFSGSGSGTDFTLKISRVEAEDVGVYYCSQNTHVPPTFGQGTKVEIERTVAAPSVFIFPPSDEQLKSGTASVVCLLNNFYPREAKVQWKVDNALQSGNSQESVTEQDSKDSTYSLSSTLTLSKADYEKHKVYACEVTHQGLSSPVTKSFNRGEC
notes: Alteration in both H chains; also called Ho Ab K334_04F
B10: GpH7-B3 variant K334_05P/GpL16-k0 (antibody, human IgG1, kappa)
heavy: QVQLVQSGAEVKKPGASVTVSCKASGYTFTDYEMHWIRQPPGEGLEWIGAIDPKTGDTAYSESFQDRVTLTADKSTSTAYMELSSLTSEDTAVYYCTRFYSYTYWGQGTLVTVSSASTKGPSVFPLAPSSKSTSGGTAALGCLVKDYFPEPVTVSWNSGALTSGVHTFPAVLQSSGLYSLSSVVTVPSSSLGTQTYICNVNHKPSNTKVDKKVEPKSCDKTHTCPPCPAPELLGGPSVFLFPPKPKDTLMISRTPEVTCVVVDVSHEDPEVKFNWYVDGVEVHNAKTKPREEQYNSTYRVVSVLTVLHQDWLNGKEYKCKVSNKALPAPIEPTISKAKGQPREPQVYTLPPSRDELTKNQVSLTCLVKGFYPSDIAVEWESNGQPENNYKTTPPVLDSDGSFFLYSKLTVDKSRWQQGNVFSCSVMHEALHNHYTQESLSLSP
light: DIVMTQSPLSLPVTPGEPASISCQASESLVHSNRNTYLHWYLQKPGQSPQLLIYKVSNRFSGVPDRFSGSGSGTDFTLKISRVEAEDVGVYYCSQNTHVPPTFGQGTKVEIERTVAAPSVFIFPPSDEQLKSGTASVVCLLNNFYPREAKVQWKVDNALQSGNSQESVTEQDSKDSTYSLSSTLTLSKADYEKHKVYACEVTHQGLSSPVTKSFNRGEC
notes: Alteration in both H chains; also called Ho Ab K334_05P
B11: GpH7-B3 variant K334_07I/GpL16-k0 (antibody, human IgG1, kappa)
heavy: not shown
light: DIVMTQSPLSLPVTPGEPASISCQASESLVHSNRNTYLHWYLQKPGQSPQLLIYKVSNRFSGVPDRFSGSGSGTDFTLKISRVEAEDVGVYYCSQNTHVPPTFGQGTKVEIERTVAAPSVFIFPPSDEQLKSGTASVVCLLNNFYPREAKVQWKVDNALQSGNSQESVTEQDSKDSTYSLSSTLTLSKADYEKHKVYACEVTHQGLSSPVTKSFNRGEC
notes: Alteration in both H chains; also called Ho Ab K334_07I
B12: GpH7-B3 variant K334_08L/GpL16-k0 (antibody, human IgG1, kappa)
heavy: not shown
light: DIVMTQSPLSLPVTPGEPASISCQASESLVHSNRNTYLHWYLQKPGQSPQLLIYKVSNRFSGVPDRFSGSGSGTDFTLKISRVEAEDVGVYYCSQNTHVPPTFGQGTKVEIERTVAAPSVFIFPPSDEQLKSGTASVVCLLNNFYPREAKVQWKVDNALQSGNSQESVTEQDSKDSTYSLSSTLTLSKADYEKHKVYACEVTHQGLSSPVTKSFNRGEC
notes: Alteration in both H chains; also called Ho Ab K334_08L
B13: GpH7-B3 variant K334_09D/GpL16-k0 (antibody, human IgG1, kappa)
heavy: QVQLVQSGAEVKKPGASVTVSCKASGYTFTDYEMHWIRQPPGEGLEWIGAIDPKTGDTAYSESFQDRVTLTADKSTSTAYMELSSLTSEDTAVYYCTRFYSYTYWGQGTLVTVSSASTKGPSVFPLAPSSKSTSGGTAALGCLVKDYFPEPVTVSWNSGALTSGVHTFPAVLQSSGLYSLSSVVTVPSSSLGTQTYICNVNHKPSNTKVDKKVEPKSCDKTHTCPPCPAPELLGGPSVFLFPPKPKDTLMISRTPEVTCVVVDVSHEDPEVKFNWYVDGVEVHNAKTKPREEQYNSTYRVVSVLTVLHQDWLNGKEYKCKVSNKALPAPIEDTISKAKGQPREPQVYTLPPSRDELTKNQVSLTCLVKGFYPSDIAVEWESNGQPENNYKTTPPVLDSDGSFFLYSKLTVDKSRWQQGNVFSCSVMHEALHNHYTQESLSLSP
light: DIVMTQSPLSLPVTPGEPASISCQASESLVHSNRNTYLHWYLQKPGQSPQLLIYKVSNRFSGVPDRFSGSGSGTDFTLKISRVEAEDVGVYYCSQNTHVPPTFGQGTKVEIERTVAAPSVFIFPPSDEQLKSGTASVVCLLNNFYPREAKVQWKVDNALQSGNSQESVTEQDSKDSTYSLSSTLTLSKADYEKHKVYACEVTHQGLSSPVTKSFNRGEC
notes: Alteration in both H chains; also called Ho Ab K334_09D
B14: GpH7-B3 variant K334_13S/GpL16-k0 (antibody, human IgG1, kappa)
heavy: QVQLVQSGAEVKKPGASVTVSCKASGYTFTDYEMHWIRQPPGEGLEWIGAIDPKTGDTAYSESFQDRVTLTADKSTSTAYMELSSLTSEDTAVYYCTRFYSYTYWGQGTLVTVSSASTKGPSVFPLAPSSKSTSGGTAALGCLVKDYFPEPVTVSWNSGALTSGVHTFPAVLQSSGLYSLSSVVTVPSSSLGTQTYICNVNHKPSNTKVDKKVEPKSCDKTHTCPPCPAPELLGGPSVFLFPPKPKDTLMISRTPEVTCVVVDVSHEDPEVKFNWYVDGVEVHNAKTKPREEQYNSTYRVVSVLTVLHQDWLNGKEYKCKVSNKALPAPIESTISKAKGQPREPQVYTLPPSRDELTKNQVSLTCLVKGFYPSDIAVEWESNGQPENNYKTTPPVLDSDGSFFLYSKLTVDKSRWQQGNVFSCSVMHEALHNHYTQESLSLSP
light: DIVMTQSPLSLPVTPGEPASISCQASESLVHSNRNTYLHWYLQKPGQSPQLLIYKVSNRFSGVPDRFSGSGSGTDFTLKISRVEAEDVGVYYCSQNTHVPPTFGQGTKVEIERTVAAPSVFIFPPSDEQLKSGTASVVCLLNNFYPREAKVQWKVDNALQSGNSQESVTEQDSKDSTYSLSSTLTLSKADYEKHKVYACEVTHQGLSSPVTKSFNRGEC
notes: Alteration in both H chains; also called Ho Ab K334_13S
B15: GpH7-B3 variant K334_14T/GpL16-k0 (antibody, human IgG1, kappa)
heavy: not shown
light: DIVMTQSPLSLPVTPGEPASISCQASESLVHSNRNTYLHWYLQKPGQSPQLLIYKVSNRFSGVPDRFSGSGSGTDFTLKISRVEAEDVGVYYCSQNTHVPPTFGQGTKVEIERTVAAPSVFIFPPSDEQLKSGTASVVCLLNNFYPREAKVQWKVDNALQSGNSQESVTEQDSKDSTYSLSSTLTLSKADYEKHKVYACEVTHQGLSSPVTKSFNRGEC
notes: Alteration in both H chains; also called Ho Ab K334_14T
B16: GpH7-B3 variant K334_15Y/GpL16-k0 (antibody, human IgG1, kappa)
heavy: not shown
light: DIVMTQSPLSLPVTPGEPASISCQASESLVHSNRNTYLHWYLQKPGQSPQLLIYKVSNRFSGVPDRFSGSGSGTDFTLKISRVEAEDVGVYYCSQNTHVPPTFGQGTKVEIERTVAAPSVFIFPPSDEQLKSGTASVVCLLNNFYPREAKVQWKVDNALQSGNSQESVTEQDSKDSTYSLSSTLTLSKADYEKHKVYACEVTHQGLSSPVTKSFNRGEC
notes: Alteration in both H chains; also called Ho Ab K334_15Y
B17: GpH7-B3 variant K334_16H/GpL16-k0 (antibody, human IgG1, kappa)
heavy: not shown
light: DIVMTQSPLSLPVTPGEPASISCQASESLVHSNRNTYLHWYLQKPGQSPQLLIYKVSNRFSGVPDRFSGSGSGTDFTLKISRVEAEDVGVYYCSQNTHVPPTFGQGTKVEIERTVAAPSVFIFPPSDEQLKSGTASVVCLLNNFYPREAKVQWKVDNALQSGNSQESVTEQDSKDSTYSLSSTLTLSKADYEKHKVYACEVTHQGLSSPVTKSFNRGEC
notes: Alteration in both H chains; also called Ho Ab K334_16H
B18: GpH7-B3 variant K334_18N/GpL16-k0 (antibody, human IgG1, kappa)
heavy: not shown
light: DIVMTQSPLSLPVTPGEPASISCQASESLVHSNRNTYLHWYLQKPGQSPQLLIYKVSNRFSGVPDRFSGSGSGTDFTLKISRVEAEDVGVYYCSQNTHVPPTFGQGTKVEIERTVAAPSVFIFPPSDEQLKSGTASVVCLLNNFYPREAKVQWKVDNALQSGNSQESVTEQDSKDSTYSLSSTLTLSKADYEKHKVYACEVTHQGLSSPVTKSFNRGEC
notes: Alteration in both H chains; also called Ho Ab K334_18N
B19: GpH7-B3 variant K334_19Q/GpL16-k0 (antibody, human IgG1, kappa)
heavy: not shown
light: DIVMTQSPLSLPVTPGEPASISCQASESLVHSNRNTYLHWYLQKPGQSPQLLIYKVSNRFSGVPDRFSGSGSGTDFTLKISRVEAEDVGVYYCSQNTHVPPTFGQGTKVEIERTVAAPSVFIFPPSDEQLKSGTASVVCLLNNFYPREAKVQWKVDNALQSGNSQESVTEQDSKDSTYSLSSTLTLSKADYEKHKVYACEVTHQGLSSPVTKSFNRGEC
notes: Alteration in both H chains; also called Ho Ab K334_19Q
B20: GpH7-B3 variant L328_15Y/GpL16-k0 (antibody, human IgG1, kappa)
heavy: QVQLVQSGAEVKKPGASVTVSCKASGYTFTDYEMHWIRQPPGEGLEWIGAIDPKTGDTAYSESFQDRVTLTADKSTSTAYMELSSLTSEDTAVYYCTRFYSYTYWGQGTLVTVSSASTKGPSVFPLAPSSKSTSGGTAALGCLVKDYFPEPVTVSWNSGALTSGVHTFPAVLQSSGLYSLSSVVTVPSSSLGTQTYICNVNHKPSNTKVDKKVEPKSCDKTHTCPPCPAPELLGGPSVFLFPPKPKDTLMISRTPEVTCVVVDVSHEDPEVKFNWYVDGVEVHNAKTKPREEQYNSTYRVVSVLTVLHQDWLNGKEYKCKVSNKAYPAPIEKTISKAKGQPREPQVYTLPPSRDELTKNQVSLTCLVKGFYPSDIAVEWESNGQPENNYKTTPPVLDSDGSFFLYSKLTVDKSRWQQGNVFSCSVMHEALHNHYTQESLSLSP
light: DIVMTQSPLSLPVTPGEPASISCQASESLVHSNRNTYLHWYLQKPGQSPQLLIYKVSNRFSGVPDRFSGSGSGTDFTLKISRVEAEDVGVYYCSQNTHVPPTFGQGTKVEIERTVAAPSVFIFPPSDEQLKSGTASVVCLLNNFYPREAKVQWKVDNALQSGNSQESVTEQDSKDSTYSLSSTLTLSKADYEKHKVYACEVTHQGLSSPVTKSFNRGEC
notes: Alteration in both H chains; also called Ho Ab L328_15Y
B21: GpH7-B3 variant P271_01G/GpL16-k0 (antibody, human IgG1, kappa)
heavy: not shown
light: DIVMTQSPLSLPVTPGEPASISCQASESLVHSNRNTYLHWYLQKPGQSPQLLIYKVSNRFSGVPDRFSGSGSGTDFTLKISRVEAEDVGVYYCSQNTHVPPTFGQGTKVEIERTVAAPSVFIFPPSDEQLKSGTASVVCLLNNFYPREAKVQWKVDNALQSGNSQESVTEQDSKDSTYSLSSTLTLSKADYEKHKVYACEVTHQGLSSPVTKSFNRGEC
notes: Alteration in both H chains; also called Ho Ab P271_01G
B22: GpH7-B3 variant P271_08L/GpL16-k0 (antibody, human IgG1, kappa)
heavy: not shown
light: DIVMTQSPLSLPVTPGEPASISCQASESLVHSNRNTYLHWYLQKPGQSPQLLIYKVSNRFSGVPDRFSGSGSGTDFTLKISRVEAEDVGVYYCSQNTHVPPTFGQGTKVEIERTVAAPSVFIFPPSDEQLKSGTASVVCLLNNFYPREAKVQWKVDNALQSGNSQESVTEQDSKDSTYSLSSTLTLSKADYEKHKVYACEVTHQGLSSPVTKSFNRGEC
notes: Alteration in both H chains; also called Ho Ab P271_08L

Target: T1, FcγRIa (human, UniProt P12314 16-292)
T1 construct: extracellular domain; also called FcgRI; FcgRIa; not shown: His tag attached to the C terminus
Assay: SPR (Biacore), relative binding; control HoCon Ab GpH7-B3/GpL16-k0

T1 sequence (P12314 16-292): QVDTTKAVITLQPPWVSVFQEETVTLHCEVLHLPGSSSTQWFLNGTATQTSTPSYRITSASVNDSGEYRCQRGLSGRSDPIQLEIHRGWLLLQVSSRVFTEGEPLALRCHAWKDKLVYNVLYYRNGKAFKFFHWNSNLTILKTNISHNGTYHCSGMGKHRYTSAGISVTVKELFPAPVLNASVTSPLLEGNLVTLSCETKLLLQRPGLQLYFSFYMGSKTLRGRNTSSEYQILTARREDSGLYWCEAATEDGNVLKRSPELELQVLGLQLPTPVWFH

Binder | Ho/Con_1a
B1 | 102 % of control (=100)
B2 | 101 % of control (=100)
B3 | 106 % of control (=100)
B4 | 105 % of control (=100)
B5 | 105 % of control (=100)
B6 | 104 % of control (=100)
B7 | 106 % of control (=100)
B8 | 105 % of control (=100)
B9 | 106 % of control (=100)
B10 | 106 % of control (=100)
B11 | 107 % of control (=100)
B12 | 108 % of control (=100)
B13 | 108 % of control (=100)
B14 | 106 % of control (=100)
B15 | 106 % of control (=100)
B16 | 107 % of control (=100)
B17 | 106 % of control (=100)
B18 | 108 % of control (=100)
B19 | 106 % of control (=100)
B20 | 104 % of control (=100)
B21 | 106 % of control (=100)
B22 | 103 % of control (=100)
